Test results as given in US20140141002A1 (UNIVERSITY OF NORTH CAROLINA AT CHAPEL HILL, published 2014).

Legend:
[1] = biological target: Src homology 2 domain containing protein tyrosine phosphatase substrate 1 (SHPS-1), endogenous in porcine aortic smooth muscle cells (porcine) (UniProt F1S887); test: SHPS-1 immunoprecipitated from transfected pSMCs, immunoblot for FLAG, densitometry
[2] = biological target: T1, Src homology 2 domain containing protein tyrosine phosphatase substrate 1 (SHPS-1), endogenous in porcine … (porcine, UniProt F1S887 31-509); test: cell-based or functional assay
T1 sequence: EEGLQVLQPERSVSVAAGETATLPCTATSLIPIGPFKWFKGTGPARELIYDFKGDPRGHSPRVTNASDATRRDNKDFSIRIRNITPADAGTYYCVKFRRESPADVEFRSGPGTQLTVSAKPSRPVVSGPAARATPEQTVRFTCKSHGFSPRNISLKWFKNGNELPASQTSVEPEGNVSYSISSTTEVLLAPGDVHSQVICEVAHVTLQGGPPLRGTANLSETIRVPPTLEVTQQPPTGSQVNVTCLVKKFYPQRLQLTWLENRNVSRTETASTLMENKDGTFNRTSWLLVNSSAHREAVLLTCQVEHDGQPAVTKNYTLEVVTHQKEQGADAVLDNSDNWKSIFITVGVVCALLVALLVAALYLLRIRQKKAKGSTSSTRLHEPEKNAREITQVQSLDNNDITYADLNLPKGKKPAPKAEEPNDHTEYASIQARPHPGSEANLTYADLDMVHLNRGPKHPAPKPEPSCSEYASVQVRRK

[3] = biological target: T2, integrin associated protein (IAP), endogenous in porcine aortic smooth muscle cells (porcine) (UniProt Q9GKE8); test: pSMCs incubated 2 h with B6H12 (4 ug/ml); SHPS-1 immunoprecipitated, immunoblot for IAP, densitometry
T2 sequence (looked up): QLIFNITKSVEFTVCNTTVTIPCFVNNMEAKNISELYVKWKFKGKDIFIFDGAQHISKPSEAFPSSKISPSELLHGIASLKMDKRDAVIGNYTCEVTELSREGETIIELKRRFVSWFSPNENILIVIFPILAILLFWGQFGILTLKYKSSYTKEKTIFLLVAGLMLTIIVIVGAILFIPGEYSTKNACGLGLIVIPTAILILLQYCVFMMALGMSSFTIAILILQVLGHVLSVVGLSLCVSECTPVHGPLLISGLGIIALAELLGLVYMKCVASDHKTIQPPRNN

IAP with truncation of extracellular domain at residue 135 and containing a C-terminal FLAG epitope (IAPcyto) (from UniProt Q9GKE8 135-303) (receptor)
% reduction in IAP association with SHPS-1 compared with cells expressing IAP fl [1]: 88%

B1: integrin associated protein (IAP), endogenous in porcine aortic smooth muscle cells (receptor, UniProt Q9GKE8 19-303, looked up)
chain: QLIFNITKSVEFTVCNTTVTIPCFVNNMEAKNISELYVKWKFKGKDIFIFDGAQHISKPSEAFPSSKISPSELLHGIASLKMDKRDAVIGNYTCEVTELSREGETIIELKRRFVSWFSPNENILIVIFPILAILLFWGQFGILTLKYKSSYTKEKTIFLLVAGLMLTIIVIVGAILFIPGEYSTKNACGLGLIVIPTAILILLQYCVFMMALGMSSFTIAILILQVLGHVLSVVGLSLCVSECTPVHGPLLISGLGIIALAELLGLVYMKCVASDHKTIQPPRNN
IGF-1 stimulated cell proliferation, cells incubated with B6H12 [2]: 1.03 fold | IGF-1 stimulated increase in SHPS-1 phosphorylation, cells pretreated with B6H12 [2]: 0.93 fold | fold increase in SHPS-1 phosphorylation in response to IGF-1, control cells (no antibody) [2]: 4.1 fold | fold increase in cell proliferation with IGF-1, no antibody [2]: 2.2 fold

B2: anti IAP monoclonal antibody B6H12 (antibody, from another filing)
scFv: EVQLVESGGDLVKPGGSLKLSCAASGFTFSGYGMSWVRQTPDKRLEWVATITSGGTYTYYPDSVKGRFTISRDNAKNTLYLQIDSLKSEDTAIYFCARSLAGNAMDYWGQGTSVTVSSGGGGSGGGGSGGGGSDIVMTQSPATLSVTPGDRVSLSCRASQTISDYLHWYQQKSHESPRLLIKFASQSISGIPSRFSGSGSGSDFTLSINSVEPEDVGVYYCQNGHGFPRTFGGGTKLEIKEQKLISEEDL
% reduction of the interaction between IAP and SHPS-1 [3]: 75%
